The supplement of paper PMC9732359
± gives the uncertainty stated by the source.

Assay: protein stability index of a GFP-peptide fusion (yeast GPS) (PSI 1-4); higher = more stable; sorted into four equal gates, so the index is relative within each strain
Outline: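 Tiled 17-residue peptides from yeast proteins were fused downstream of GFP on a plasmid that also expresses Cherry, and the pooled library was carried in yeast. Mid-log cultures grown in leucine-free medium were sorted into four equal gates by GFP/Cherry fluorescence ratio. Plasmids from each gate were PCR-amplified and Illumina-sequenced, and reads were assigned to strains by barcodes. Each peptide's protein stability index is the sum, over gates, of the gate's read frequency multiplied by its gate number.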

Row | Sequence | protein stability index (doa10∆) | protein stability index (pdr5∆) | protein stability index (san1∆) | protein stability index (ubr1∆)
1 | TRPQMPSRTRETATSER [GRR1] | 2.85 ± 0.062 | 3.12 ± 0.06 | 3.03 ± 0.05 | 3.05 ± 0.036
2 | LVQKTVQESGNIDYQKG [GRR1] | 3.5 ± 0.1 | 3.37 ± 0.095 | 3.2 ± 0.09 | 3.23 ± 0.1
3 | LAVIMDNIGEIDESLFN [YCG1] | 3.08 ± 0.12 | 3.1 ± 0.064 | 3.13 ± 0.059 | 3 ± 0.12
4 | AVVQTVKGLLNTYKRLV [YJL039C/NUP192] | 1.8 ± 0.11 | 2.37 ± 0.085 | 1.92 ± 0.14 | 2.45 ± 0.083
5 | SSRFIKGGSLYGLGLIY [RPN2] | 2.07 ± 0.09 | 2.1 ± 0.088 | 2.38 ± 0.061 | 1.99 ± 0.06
6 | VLEKYEVIGYIAAGTYG [SSN3] | 1.34 ± 0.088 | 1.55 ± 0.14 |  | 1.28 ± 0.075
7 | FPGKPVDVQAPTDDKTL [YOR098C/NUP1] | 2.78 ± 0.068 | 3.02 ± 0.1 | 2.93 ± 0.089 | 2.75 ± 0.071
8 | PYLVANVVEVMDMNEIE [RPT5] | 2.86 ± 0.093 | 2.19 ± 0.063 | 1.91 ± 0.077 | 2.32 ± 0.069
9 | HTQDIIGGMRVDENGDP [RET1] | 3.2 ± 0.084 | 3.32 ± 0.073 | 3.17 ± 0.055 | 3.37 ± 0.054
10 | DFLGVASTGSGKTLAFV [PRP28] | 3.42 ± 0.26 | 3.05 ± 0.22 | 2.92 ± 0.22 | 3.31 ± 0.061
11 | GTVGNSHKTTKEDTVSW [RPL11A] | 3.07 ± 0.095 | 3.1 ± 0.095 | 3.22 ± 0.069 | 3.12 ± 0.18
12 | GGVGSMGAINNNIPSLT [SNF6] | 3.26 ± 0.11 | 3.34 ± 0.09 | 3.39 ± 0.072 | 3.32 ± 0.1
13 | QEKMDPNNSRDDYKDLT [IRR1] | 3.33 ± 0.078 | 3.27 ± 0.083 | 3.23 ± 0.066 | 3.25 ± 0.076
14 | KYDRKVPSPTGEYVKEP [RPO21] | 2.98 ± 0.1 | 3.22 ± 0.071 | 2.81 ± 0.089 | 3.09 ± 0.04
15 | EALLVVLVSSVTEANII [RPS12] |  | 1.15 ± 0.14 |  | 1.13 ± 0.11
16 | IDMIADENGTNSAIANE [RPC37] |  |  |  | 3.17 ± 0.11
17 | TKQASSFSFLNRADGTG [YLR335W/NUP2] |  |  |  | 1.45 ± 0.2
18 | RKTLKEKAIPKDQRATT [RPO26] | 3.06 ± 0.057 | 3.18 ± 0.064 | 3.04 ± 0.049 | 3.31 ± 0.07
19 | DAGKLVYVTGGRNLGRI [RPS4A] | 2.76 ± 0.1 | 1.99 ± 0.12 | 3.08 ± 0.17 | 1.89 ± 0.28
20 | SGKSNILDAICFVLGIA [SMC2] | 1.85 ± 0.07 | 1.86 ± 0.087 | 2.25 ± 0.11 | 1.82 ± 0.066
21 | HGKPTKGSSLASAASEA [SSN8] | 1.95 ± 0.08 | 2.42 ± 0.068 | 2.19 ± 0.088 | 2.73 ± 0.032
22 | NGKEVPLAKIYLEENKS [MED1] | 3.2 ± 0.1 | 3.27 ± 0.071 | 3.12 ± 0.075 | 3.21 ± 0.063
23 | NIDQEGSKQADRMAKYL [PGD1] | 3.4 ± 0.094 | 3.35 ± 0.13 | 2.97 ± 0.087 | 3.17 ± 0.15
24 | IFCVGSGQTFAYGVLDS [PRE2] | 2.49 ± 0.095 | 2.04 ± 0.11 | 2.249 ± 0.019 | 2.33 ± 0.073
25 | GDNEYITLRTSGELLQG [MCD1] | 3.14 ± 0.13 | 3.11 ± 0.16 | 3.16 ± 0.097 | 3.36 ± 0.096
26 | SLTISLYASDYASYFPY [RPN7] | 1.42 ± 0.036 | 1.64 ± 0.035 | 1.6 ± 0.049 | 1.67 ± 0.028
27 | EDHVEDHRKRKKSKIQL [LIN1] | 3.17 ± 0.093 | 3.25 ± 0.082 | 3.12 ± 0.059 | 3.16 ± 0.052
28 | QVNQLQRILEVLGTPDQ [SSN3] | 1.49 ± 0.043 | 1.69 ± 0.037 | 1.34 ± 0.05 | 1.51 ± 0.038
